From paper PMC6124691 (Cell, 2018)

Assays:
[1] = molecular target: T1, Human MTR4 (SKIV2L2, DOB1) (human, UniProt P42285 1-1042); assay: cryo-EM structure
T1 sequence: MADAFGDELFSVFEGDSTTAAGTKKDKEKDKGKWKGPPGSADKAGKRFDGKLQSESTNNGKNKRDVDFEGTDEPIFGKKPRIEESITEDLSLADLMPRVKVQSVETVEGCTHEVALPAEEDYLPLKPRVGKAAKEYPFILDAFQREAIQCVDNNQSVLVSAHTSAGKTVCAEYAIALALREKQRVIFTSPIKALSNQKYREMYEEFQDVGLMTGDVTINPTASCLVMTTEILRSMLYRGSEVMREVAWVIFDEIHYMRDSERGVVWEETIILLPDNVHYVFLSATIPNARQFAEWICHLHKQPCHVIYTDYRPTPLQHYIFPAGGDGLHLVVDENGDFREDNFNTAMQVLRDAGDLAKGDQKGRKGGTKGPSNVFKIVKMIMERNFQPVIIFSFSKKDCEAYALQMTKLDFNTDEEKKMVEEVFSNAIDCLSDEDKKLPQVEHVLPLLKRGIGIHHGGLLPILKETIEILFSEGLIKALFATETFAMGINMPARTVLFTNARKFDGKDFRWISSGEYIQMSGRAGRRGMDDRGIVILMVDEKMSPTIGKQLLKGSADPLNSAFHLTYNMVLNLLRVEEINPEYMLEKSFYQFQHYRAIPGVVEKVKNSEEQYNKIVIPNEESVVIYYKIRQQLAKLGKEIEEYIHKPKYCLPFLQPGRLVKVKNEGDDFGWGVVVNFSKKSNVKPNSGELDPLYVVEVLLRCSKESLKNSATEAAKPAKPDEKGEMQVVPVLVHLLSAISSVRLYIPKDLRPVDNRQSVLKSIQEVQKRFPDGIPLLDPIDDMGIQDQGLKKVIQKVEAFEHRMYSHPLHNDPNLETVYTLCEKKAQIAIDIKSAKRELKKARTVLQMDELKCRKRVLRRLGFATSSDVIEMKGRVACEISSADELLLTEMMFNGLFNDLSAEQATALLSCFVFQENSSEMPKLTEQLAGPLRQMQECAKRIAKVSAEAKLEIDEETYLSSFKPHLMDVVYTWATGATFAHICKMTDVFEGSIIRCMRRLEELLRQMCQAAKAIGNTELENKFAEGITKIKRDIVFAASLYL

EXOSC3 = EXOSC3 (human, UniProt Q9NQT5 1-275); assay: cryo-EM structure
Chain of EXOSC3 (Q9NQT5 whole entry): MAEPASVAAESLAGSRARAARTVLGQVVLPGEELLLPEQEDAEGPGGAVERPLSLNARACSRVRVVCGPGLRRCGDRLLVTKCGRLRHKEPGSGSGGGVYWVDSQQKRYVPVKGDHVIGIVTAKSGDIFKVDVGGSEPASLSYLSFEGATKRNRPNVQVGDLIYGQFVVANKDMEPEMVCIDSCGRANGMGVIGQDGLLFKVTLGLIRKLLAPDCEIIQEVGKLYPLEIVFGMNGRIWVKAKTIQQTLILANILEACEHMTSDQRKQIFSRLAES

- binding result [1]: binds
- binding result (EXOSC3): binds
B1: Human M-Phase-Phosphoprotein 6 (MPP6) (natural protein)
chain: MAAERKTRLSKNLLRMKFMQRGLDSETKKQLEEEEKKIISEEHWYLDLPELKEKESFIIEEQSFLLCEDLLYGRMSFRGFNPEVEKLMLQMNAKHKAEEVEDETVELDVSDEEMARRYETLVGTIGKKFARKRDHANYEEDENGDITPIKAKKMFLKPQD
